Assay results taken from paper PMC3905015.

Target: monomeric red fluorescent protein (mRFP)
Assay: native MS; ESI-TWIMS-MS (nanoESI, Synapt HDMS), purified protein in 50 mM ammonium acetate; gas phase; self-association

- stoichiometry N: 2
Substance: monomeric red fluorescent protein (mRFP)
